# Test results taken from PMC7102968, “The complex formed between a synthetic RNA aptamer and the transcription repressor TetR is a structural and functional twin of the operator DNA–TetR regulator complex”.
# Experiments:
# TetR(BD') [1] = biological target: T1, TetR(BD') (UniProt P04483 1-187+P0ACT4:188-208, C68S;C88N;C121T;C144S;internal_change); experiment: ITC; n=1.17; ITC: 20 mM potassium phosphate pH 7.4, 50 mM NaCl, 25 C; EMSA: 50 mM Tris-HCl pH 8.0, 10 mM MgCl2, 25 mM NaCl, 25 ug/ml yeast tRNA, room temperature; SEC buffer not given (preparative complex: 20 mM Tris-HCl pH 8.0, 150 mM NaCl, 5 mM MgCl2); conditions: protein: recombinant; chain copies: 2; blunt
# TetR-R28A [2] = biological target: T2, TetR-R28A (UniProt P04483 1-187+P0ACT4:188-208, R28A;C68S;C88N;C121T;C144S;internal_change); experiment: SEC; ITC: 20 mM potassium phosphate pH 7.4, 50 mM NaCl, 25 C; EMSA: 50 mM Tris-HCl pH 8.0, 10 mM MgCl2, 25 mM NaCl, 25 ug/ml yeast tRNA, room temperature; SEC buffer not given (preparative complex: 20 mM Tris-HCl pH 8.0, 150 mM NaCl, 5 mM MgCl2); conditions: protein: recombinant; chain copies: 2; blunt
# TetR-Y42A = TetR-Y42A (UniProt P04483 1-187+P0ACT4:188-208, Y42A;C68S;C88N;C121T;C144S;internal_change); experiment: as above; conditions: protein: recombinant; chain copies: 2; blunt
# TetR-Q38A [3] = biological target: T3, TetR-Q38A (UniProt P04483 1-187+P0ACT4:188-208, Q38A;C68S;C88N;C121T;C144S;internal_change); experiment: as above; conditions: protein: recombinant; chain copies: 2; blunt
# TetR-Q38A [4] = biological target: T3, TetR-Q38A; experiment: ITC; n=1.10; ITC: 20 mM potassium phosphate pH 7.4, 50 mM NaCl, 25 C; EMSA: 50 mM Tris-HCl pH 8.0, 10 mM MgCl2, 25 mM NaCl, 25 ug/ml yeast tRNA, room temperature; SEC buffer not given (preparative complex: 20 mM Tris-HCl pH 8.0, 150 mM NaCl, 5 mM MgCl2); conditions: protein: recombinant, chain copies: 2, label: 5'-32P in EMSA, none in ITC, crystal, hairpin, L-shaped, 43 nt, stems P1 and P2
# TetR(BD') [5] = biological target: T1, TetR(BD'); experiment: ITC; n=0.96 (TetR dimer per aptamer); ITC: 20 mM potassium phosphate pH 7.4, 50 mM NaCl, 25 C; EMSA: 50 mM Tris-HCl pH 8.0, 10 mM MgCl2, 25 mM NaCl, 25 ug/ml yeast tRNA, room temperature; SEC buffer not given (preparative complex: 20 mM Tris-HCl pH 8.0, 150 mM NaCl, 5 mM MgCl2); conditions: protein: recombinant, chain copies: 2, label: 5'-32P in EMSA, none in ITC, crystal, hairpin, L-shaped, 43 nt, stems P1 and P2
# TetR-Q38A [6] = biological target: T3, TetR-Q38A; experiment: EMSA; 10 mM Mg2+, 25 ug/ml yeast tRNA; exact Kd not determinable, weak binding detected; ITC: 20 mM potassium phosphate pH 7.4, 50 mM NaCl, 25 C; EMSA: 50 mM Tris-HCl pH 8.0, 10 mM MgCl2, 25 mM NaCl, 25 ug/ml yeast tRNA, room temperature; SEC buffer not given (preparative complex: 20 mM Tris-HCl pH 8.0, 150 mM NaCl, 5 mM MgCl2); conditions: protein: recombinant, chain copies: 2, label: 5'-32P in EMSA, none in ITC, crystal, hairpin, L-shaped, 43 nt, stems P1 and P2
# TetR-R28A [7] = biological target: T2, TetR-R28A; experiment: EMSA; 10 mM Mg2+, up to 1000 nM TetR; ITC: 20 mM potassium phosphate pH 7.4, 50 mM NaCl, 25 C; EMSA: 50 mM Tris-HCl pH 8.0, 10 mM MgCl2, 25 mM NaCl, 25 ug/ml yeast tRNA, room temperature; SEC buffer not given (preparative complex: 20 mM Tris-HCl pH 8.0, 150 mM NaCl, 5 mM MgCl2); conditions: protein: recombinant, chain copies: 2, label: 5'-32P in EMSA, none in ITC, crystal, hairpin, L-shaped, 43 nt, stems P1 and P2
# TetR(BD') [8] = biological target: T1, TetR(BD'); experiment: EMSA; 10 mM Mg2+, 25 ug/ml yeast tRNA; ITC: 20 mM potassium phosphate pH 7.4, 50 mM NaCl, 25 C; EMSA: 50 mM Tris-HCl pH 8.0, 10 mM MgCl2, 25 mM NaCl, 25 ug/ml yeast tRNA, room temperature; SEC buffer not given (preparative complex: 20 mM Tris-HCl pH 8.0, 150 mM NaCl, 5 mM MgCl2); conditions: protein: recombinant, chain copies: 2, label: 5'-32P in EMSA, none in ITC, crystal, hairpin, L-shaped, 43 nt, stems P1 and P2
# TetR(BD') [9] = biological target: T1, TetR(BD'); experiment: X-ray crystallography; 2.9 A; ITC: 20 mM potassium phosphate pH 7.4, 50 mM NaCl, 25 C; EMSA: 50 mM Tris-HCl pH 8.0, 10 mM MgCl2, 25 mM NaCl, 25 ug/ml yeast tRNA, room temperature; SEC buffer not given (preparative complex: 20 mM Tris-HCl pH 8.0, 150 mM NaCl, 5 mM MgCl2); conditions: protein: recombinant; chain copies: 2; hairpin, L-shaped, 39 nt, UUCG loop
binder,measurement,setting,value
tetO operator 25 bp (dsDNA) DNA 1: CGCATTCTATCATTGATAGGATGCG DNA 2: CGCATCCTATCAATGATAGAATGCG,Kd,TetR(BD') [1],51.1 nM
same,binding result,TetR-R28A [2],no binding
same,binding result,TetR-Y42A,no binding
same,binding result,TetR-Q38A [3],binds
GGCCGGAGAAUGUUAUGGCGCGAAAGCGCAGAGAAAACCGGUC (structured_RNA) [TetR-binding aptamer K1],Kd,TetR-Q38A [4],26.2 nM
same,Kd,TetR(BD') [5],5.6 nM
same,Kd,TetR-Q38A [6],> 500 nM
same,binding result,TetR-R28A [7],no binding
same,Kd,TetR(BD') [8],80 nM
GGCGGAGAAUGUUAUGGCCUUCGGGCAGAGAAAACCGUC (structured_RNA) [TetR-binding aptamer K2],binding result,TetR(BD') [9],binds
